Key:
[1] = target: N-WASPC in complex with Alexa647-labeled EspFU R′5 (UniProt O08816); assay: SEC
EspFU R′1-5 = EspFU R′1-5 (UniProt P0DJ88); assay: ITC
EspFU R′4-5 = EspFU R′4-5 (UniProt P0DJ88); assay: ITC
EspFU R′5 = EspFU R′5 (UniProt P0DJ88); assay: ITC
Sequence of EspFU R′5 (P0DJ88 221-267): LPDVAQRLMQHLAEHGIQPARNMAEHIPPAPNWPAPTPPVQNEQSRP

Sequence of WASP GBD (residues 242–310) (P42768 242-310): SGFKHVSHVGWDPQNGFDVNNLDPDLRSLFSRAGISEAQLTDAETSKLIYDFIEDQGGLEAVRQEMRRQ
Sequence of EspFU R′1-5 (P0DJ88 80-314): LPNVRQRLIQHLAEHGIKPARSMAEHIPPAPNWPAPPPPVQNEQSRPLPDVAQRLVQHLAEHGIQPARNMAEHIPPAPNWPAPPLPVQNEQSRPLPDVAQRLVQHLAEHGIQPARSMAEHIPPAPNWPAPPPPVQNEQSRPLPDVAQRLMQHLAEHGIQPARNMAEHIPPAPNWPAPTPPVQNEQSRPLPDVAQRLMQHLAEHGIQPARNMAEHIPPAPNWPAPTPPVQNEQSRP
Sequence of EspFU R′4-5 (P0DJ88 221-314): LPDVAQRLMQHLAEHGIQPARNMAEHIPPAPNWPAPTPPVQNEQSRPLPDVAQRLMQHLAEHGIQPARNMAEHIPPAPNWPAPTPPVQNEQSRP
Sequence of N-WASPC in complex with Alexa647-labeled EspFU R′5 (O08816 193-501, chain 1 of 2): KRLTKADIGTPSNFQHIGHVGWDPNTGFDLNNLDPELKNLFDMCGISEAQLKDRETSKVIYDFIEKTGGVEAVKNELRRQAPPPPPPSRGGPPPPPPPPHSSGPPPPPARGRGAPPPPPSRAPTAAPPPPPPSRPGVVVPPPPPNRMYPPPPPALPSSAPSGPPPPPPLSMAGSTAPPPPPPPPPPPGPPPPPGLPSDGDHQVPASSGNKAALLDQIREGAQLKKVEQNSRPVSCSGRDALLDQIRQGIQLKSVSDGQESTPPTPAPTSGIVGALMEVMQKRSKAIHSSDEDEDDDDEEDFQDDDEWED
Sequence of N-WASPC in complex with Alexa647-labeled EspFU R′5 (P0DJ88 221-267, chain 2 of 2, further chain): as the sequence (P0DJ88 221-267) above

Substance	percent of the EspFU shifted into the EspFU-N-WASP-Arp2/3 complex [1] [%]	Kd (EspFU R′1-5) [nM]	stoichiometry N (EspFU R′1-5)	Kd (EspFU R′4-5) [nM]	stoichiometry N (EspFU R′4-5)	Kd (EspFU R′5) [nM]	stoichiometry N (EspFU R′5)
Arp2/3 complex	60	–	–	–	–	–	–
WASP GBD (residues 242–310) (from UniProt P42768 242-310) (domain or fragment)	–	83	5.7	95	1.8	89	1
